Among the targets are HLA-A*02:02; HLA-A*02:03; HLA-A*02:06.
Common to all, as to assay: IEDB peptide-MHC binding, purified MHC/competitive/radioactivity; filed as Kd, often an IC50 or EC50 that approximates it; ≥ and ≤ were set here for values at or beyond the usual limits of such assays
The mark [1] stands for this setting: source organism: Vaccinia virus WR.
Setting [2] is: source organism: Mammarenavirus brazilense.
The mark [3] stands for this setting: source organism: SARS coronavirus Tor2.
Where [4] appears, read: source organism: Dengue virus 4 Philippines/H241/1956.
The mark [5] stands for this setting: source organism: Dengue virus 1 Brazil/97-11/1997.

Some results are limits rather than exact numbers.

A word on the Kd: it is a measure of binding affinity in units of concentration. KAKQLCYCPA: the equilibrium dissociation constant (Kd) is 308 nM in the assay with HLA-A*02:02 (setting [1]), 188 nM in the assay with HLA-A*02:03 (setting [1]) and 339 nM with HLA-A*02:06 (setting [1]).

With KIILFQNNDI, the Kd with HLA-A*02:02 (setting [1]) amounted to 1610 nM; with HLA-A*02:03 (setting [1]) it was 2000 nM; with HLA-A*02:06 (setting [1]), 2170 nM.

For the sequence KCFGNTALA, the Kd in the assay with HLA-A*02:02 (setting [2]) is 31 nM; with HLA-A*02:03 (setting [2]) it was 1090 nM; with HLA-A*02:06 (setting [2]) it was at least 77000 nM.

DTGKKELAL: the figures for the Kd in the assay with HLA-A*02:02 (setting [1]), with HLA-A*02:03 (setting [1]) and with HLA-A*02:06 (setting [1]) were 116 nM, 156 nM and 14200 nM, respectively.

Take ITPTIEDDKI: the Kd stood at 18700 nM in the assay with HLA-A*02:02 (setting [1]), 4200 nM in the assay with HLA-A*02:03 (setting [1]) and 1500 nM with HLA-A*02:06 (setting [1]).

As for NASKFVYVSV, the equilibrium dissociation constant (Kd) with HLA-A*02:02 (setting [1]) worked out at 4550 nM; with HLA-A*02:03 (setting [1]), 8.57 nM; with HLA-A*02:06 (setting [1]) it was 823 nM.

For KLYGYASLTT, the Kd was 1.88 nM with HLA-A*02:02 (setting [1]), 0.261 nM in the assay with HLA-A*02:03 (setting [1]) and 34 nM with HLA-A*02:06 (setting [1]).

In the case of VLEKKVCAIT, the figures for the dissociation constant (Kd) with HLA-A*02:02 (setting [1]), with HLA-A*02:03 (setting [1]) and with HLA-A*02:06 (setting [1]) were 590 nM, 1240 nM and 1680 nM, respectively.

Regarding KTNTKHCPKI, the Kd was at least 33800 nM with HLA-A*02:02 (setting [1]), 10900 nM with HLA-A*02:03 (setting [1]) and 234 nM with HLA-A*02:06 (setting [1]).

Turning to ILGIIITVGM, the equilibrium dissociation constant (Kd) amounted to 288 nM with HLA-A*02:02 (setting [1]), 265 nM in the assay with HLA-A*02:03 (setting [1]) and 4710 nM in the assay with HLA-A*02:06 (setting [1]).

For VISVIFYFI, the Kd in the assay with HLA-A*02:02 (setting [1]) came out at 1.4 nM; in the assay with HLA-A*02:03 (setting [1]), 729 nM; with HLA-A*02:06 (setting [1]), 497 nM.

As to YLMCLSPLMA, the Kd in the assay with HLA-A*02:02 (setting [3]) was determined as 0.237 nM; with HLA-A*02:03 (setting [3]), 0.127 nM; with HLA-A*02:06 (setting [3]) it was 1.29 nM.

For the sequence LLVQYGAKI, the Kd with HLA-A*02:02 (setting [1]) is 206 nM; with HLA-A*02:03 (setting [1]) it was 358 nM; in the assay with HLA-A*02:06 (setting [1]), 1140 nM.

With DTCLLAISA, the Kd with HLA-A*02:02 (setting [1]) is 4330 nM; with HLA-A*02:03 (setting [1]), 6450 nM; with HLA-A*02:06 (setting [1]) it was at least 25200 nM.

Turning to IAVANCVRNL, the Kd in the assay with HLA-A*02:02 (setting [1]) came to 57.1 nM; with HLA-A*02:03 (setting [1]) it was 467 nM; in the assay with HLA-A*02:06 (setting [1]), 9120 nM.

For the sequence CTMERTNDLT, the dissociation constant (Kd) in the assay with HLA-A*02:02 (setting [1]) was 4050 nM; with HLA-A*02:03 (setting [1]), 16100 nM; with HLA-A*02:06 (setting [1]) it was 1010 nM.

For TIKESLLKET, the dissociation constant Kd with HLA-A*02:02 (setting [1]) is 1580 nM; in the assay with HLA-A*02:03 (setting [1]), 149 nM; with HLA-A*02:06 (setting [1]), 87.2 nM.

Take ILSNKLLYAA: the Kd amounted to 8.09 nM with HLA-A*02:02 (setting [1]), 1110 nM in the assay with HLA-A*02:03 (setting [1]) and 150 nM with HLA-A*02:06 (setting [1]).

Regarding ITAIYVFCI, the Kd with HLA-A*02:02 (setting [3]) is 28.7 nM; in the assay with HLA-A*02:03 (setting [3]), 89.2 nM; with HLA-A*02:06 (setting [3]) it was 132 nM.

As for AISYCRAFI, the Kd with HLA-A*02:02 (setting [1]) turned out to be 17.2 nM; in the assay with HLA-A*02:03 (setting [1]), 149 nM; with HLA-A*02:06 (setting [1]), 146 nM.

As to LMYKGLPWNV, the dissociation constant (Kd) with HLA-A*02:02 (setting [3]) was 1.75 nM; in the assay with HLA-A*02:03 (setting [3]), 5.34 nM; with HLA-A*02:06 (setting [3]), 37.1 nM.

For LLFLNDMGKV, the Kd in the assay with HLA-A*02:03 (setting [4]) was 6.83 nM.

In the case of NQAAILMGL, in the assay with HLA-A*02:06 (setting [5]), the equilibrium dissociation constant (Kd) stood at 12.5 nM.

Turning to GVSGNIVSSV, in the assay with HLA-A*02:03 (setting [4]), the Kd is 30.6 nM.

Regarding DVGCLLTDT, the equilibrium dissociation constant (Kd) was at least 77800 nM in the assay with HLA-A*02:02 (setting [1]), at least 65400 nM with HLA-A*02:03 (setting [1]) and at least 77100 nM with HLA-A*02:06 (setting [1]).

Take ALYYVHSLL: the Kd came out at 26.1 nM with HLA-A*02:02 (setting [1]), 15000 nM in the assay with HLA-A*02:03 (setting [1]) and 3260 nM with HLA-A*02:06 (setting [1]).

On to TQVKELGIA, for which the results for the dissociation constant Kd in the assay with HLA-A*02:02 (setting [1]), with HLA-A*02:03 (setting [1]) and in the assay with HLA-A*02:06 (setting [1]) were 7220 nM, 52.2 nM and 55.6 nM, respectively.

Turning to LLFMILTVA, the Kd in the assay with HLA-A*02:03 (setting [5]) was determined as 29.3 nM.

Take LLTHGADPNA: the Kd with HLA-A*02:02 (setting [1]) turned out to be 9610 nM; in the assay with HLA-A*02:03 (setting [1]) it was 7510 nM; with HLA-A*02:06 (setting [1]), 15800 nM.

Turning to NLYKVYNGI, the Kd with HLA-A*02:02 (setting [1]) is 408 nM; in the assay with HLA-A*02:03 (setting [1]) it was 61.7 nM; in the assay with HLA-A*02:06 (setting [1]), 817 nM.

As for YMLFTKFFYL, the Kd stood at 47.7 nM with HLA-A*02:02 (setting [3]), 45.8 nM with HLA-A*02:03 (setting [3]) and 20.3 nM in the assay with HLA-A*02:06 (setting [3]).

Regarding IVQSVLRDI, the Kd with HLA-A*02:02 (setting [1]) was at least 77800 nM; in the assay with HLA-A*02:03 (setting [1]), 101 nM; with HLA-A*02:06 (setting [1]) it was 1310 nM.

Turning to TAFFNTCKPT, the values for the Kd with HLA-A*02:02 (setting [1]), in the assay with HLA-A*02:03 (setting [1]) and in the assay with HLA-A*02:06 (setting [1]) were at least 31600 nM, at least 22300 nM and at least 33000 nM, respectively.

As for MVAGGLLLAA, in the assay with HLA-A*02:06 (setting [4]), the Kd was determined as 19.2 nM.

For HLDGEVLSL, the equilibrium dissociation constant (Kd) is 65.9 nM with HLA-A*02:02 (setting [3]), 131 nM in the assay with HLA-A*02:03 (setting [3]) and 160 nM with HLA-A*02:06 (setting [3]).

In the case of LLDDFVEII, the results for the Kd with HLA-A*02:02 (setting [3]), with HLA-A*02:03 (setting [3]) and with HLA-A*02:06 (setting [3]) were 136 nM, 523 nM and 159 nM, respectively.

In the case of TVDFTDCRT, the figures for the dissociation constant Kd with HLA-A*02:02 (setting [1]), in the assay with HLA-A*02:03 (setting [1]) and with HLA-A*02:06 (setting [1]) were 9680 nM, at least 27000 nM and 339 nM, respectively.

As to ITVGMLIYSM, the Kd with HLA-A*02:02 (setting [1]) is 47.4 nM; with HLA-A*02:03 (setting [1]), 6110 nM; with HLA-A*02:06 (setting [1]) it was 97.1 nM.
